B1: E. coli SspB (natural protein)
chain: MDLSQLTPRRPYLLRAFYEWLLDNQLTPHLVVDVTLPGVQVPMEYARDGQIVLNIAPRAVGNLELANDEVRFNARFGGIPRQVSVPLAAVLAIYARENGAGTMFEPEAAYDEDTSIMNDEEASADNETVMSVIDGDKPDHDDDTHPDDEPPQPPRGGRPALRVVK
B2: E. coli ClpP (enzyme)
chain: not shown
B3: E. coli ClpX (containing a neutral K408E mutation) (enzyme)
chain: not shown

Assays:
[1] = target: B3; experiment: cryo-EM structure
cryo-EM structure = target: the molecule itself; experiment: cryo-EM structure

## B1
[1]
  binding result: binds

## B2
cryo-EM structure
  binding result: binds
[1]
  binding result: binds

## B3
cryo-EM structure
  binding result: binds

— article PMC9963277 (Proceedings of the National Academy of Sciences of the …, 2023)
